From the nanobody polyreactivity screen of Harvey et al. (2022)

Test: yeast display, Sf9 membrane polyspecificity reagent, FACS + sequencing; frameworks hold sequencing errors
In short: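 Sorting gates, low and high (top ~1%), were placed on anti-HA fluorescence to track expression and on streptavidin fluorescence to track reagent binding. A clone's polyreactivity label is taken from the gate it came out of. The reagent was 10% biotinylated, detergent-solubilized Sf9 membrane, applied for 1 hour at 4 °C to galactose-induced yeast display cells.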
With “QVQLVESGGGLEQAGGSLRLSCAASGLTFSVYAMGWYRQAPGKERELVAGITSSGGDTYYADSVKGRLTISRDNAKNTVYLQMNSLKPEDTAVYYCNAKYRTFVSKHDYWGQGTQVTVSS” the “polyreactivity (PSR sort gate)” value was “low polyreactivity”. With “QVQLVESGGGLVQAGGSLRLSCAASGSIFEVNAMGWYRQAPGKERELVAAISFSGDSTYYADSVKGRFTISRDNAKNTVYLQMNSLKPEDTAVYYCAAEQYVAWIDYLYDYWGQGTQVTVSS” the “polyreactivity (PSR sort gate)” value was “high polyreactivity”. With “QVQLVESGGGLVQAGGSLRLSCAASGRTFYGNAMGWYRQAPGKERELVAAITFRTSSTYYADSVKGRFTISRDYAKNTVYLQMNSLKPDDTAVFYCAALWIYSGWRYDYWGQGTQVTVSS” the “polyreactivity (PSR sort gate)” value was “high polyreactivity”. For “QVQLVESVGGLVQAGGSLRLSCAGSGFTFYRYTMGWYRQAPGTERELVAAISFSGGITRYADSVKGRFTISRDNAKNTVYLQMNSLKPEDTAVYYCNVVGPSAYLSWHKSGDYWGQGTQVTVSS”, the “polyreactivity (PSR sort gate)” value was “low polyreactivity”. In the case of “QVQLVESGGGLVQAGGSLRLSCAASGRIFPYYDMGWYRQAPGKERELVAAITWNGGSTYYADSVKGRFTISRDNAKNTVFLQMNSLKPEDSAVYYCAVEPYYYGEDYWGQGTQVTVSS”, the “polyreactivity (PSR sort gate)” value is reported as “low polyreactivity”. With “QVQLVESGGGLVQAGGSLRLSCAASGSTVYRYTMGWYRQAPGKERELVAAISRSGGRTYYADSVKGRFTISRDNAKNTVYLQMNSMKPEDTAVDYCNAEIAASAVQAQEGEFWGQGTQVTVSS” the “polyreactivity (PSR sort gate)” value was “high polyreactivity”. With “QVQLVESGGGLVQAGGSLRLSCAASGSILYIYAMGWYRQAPGKVRELVAAITGSGGTTNYADSVKGRFTISRDNAKNTVYLQMNSLKPEDTAVYYCNIGSYYSCYDFWGQGTQVTVSS” the “polyreactivity (PSR sort gate)” value was “low polyreactivity”. For “QVQLVESGGGLVQAGGSLRLSCAASGSIFPYYAMGWYRQAPGKETELVAVINSGGITNYADSVKGRFTISRDNAKNTVYLQMNSLKPEDTAVYYCAAAASPLTRHLYWGQGTQVTVSS”, the “polyreactivity (PSR sort gate)” value was “low polyreactivity”. With “QVQLVESGGGLVQAGGSLRLSCAASGFTLPLYAMGWYRQAPGKERELVAAISSGGGRTYYADSVKGRFTISRDNAKNTVYLQMNSLKPEDTAVYYCNVDRWWLGWYKFNYWGQGTQVTVSS” the “polyreactivity (PSR sort gate)” value was “high polyreactivity”. For “QVQLVESGGGLVQAGGSLRLSSAASGSTFYLNTMGWYRQAPGKEREFVAAISARGGSTYYADSVKGRFTISRDNAKNTVYLQMNSLKPEDTAVYYCAAKFVRFYWNYDYWGQGTQVTVSS”, the “polyreactivity (PSR sort gate)” value was “high polyreactivity”. For “QVQLVESGGGLVQAGGSLRLSCAASGITIKAYAMGWYRQAPGKERELVAAISGSGGSTYYADSVEGRFTISRDNAKNTVYLQMNSLKPEDTAVYYCAARAVSLTGYRFGYWGQGTQVTVSS”, the “polyreactivity (PSR sort gate)” value was “high polyreactivity”. For “QVQLVESVGGIVQAGGSLRLSCAASGRTFTYNVMGWYRQAPGKEMELVAAITSGGSNYADSVKGRFTISRDNAKNTVYLQMNSLTPEDTAGYYCATDYYEDVTIGYDYWGQGTQVTVSS”, the “polyreactivity (PSR sort gate)” value was “low polyreactivity”. For “QVQLVESGGGLVQAGGSLRLSCAASGLTFHSYAMGWYRQAPGKERELVAAINYSGGRTDYADSVKGRFTISRDNALKSVYLQMNSLQPADTAVYFCAAQRASAYYCGQGTQVTVSS”, the “polyreactivity (PSR sort gate)” value was “high polyreactivity”. In the case of “QVQLVESGGGLDQARGSLRLSCAASGFIFGRYAMGWYRQAPGKVRELVAAISRSGGSTHYADSVKGRFTISRDNAKNTVYLQMNSLKPEDTAVYYCNTYLTIWGYFYGYDYWGQGTQVTVSS”, the “polyreactivity (PSR sort gate)” value is reported as “high polyreactivity”. In the case of “QVQLVESGGGLVQAGGSLRLSCAASGRILVRNAMGRYRQAPGKERELVAVIRWSGGRTSYADSVKGRFTISRDNAKNTVYLQMNSLKPEDTAVYYCNKGGSYPTSNYKSYWVGVDYWGQGTQVTVSS”, the “polyreactivity (PSR sort gate)” value is reported as “low polyreactivity”. For “QVQLVESGGGLVQAGGSLRLSCAASGIIFRAYAMGWYRPAPGKERELVAAISRSGGSTYYADSVKGRFTISRDNAKNTVYLQMNSLKQEDTAVYYCAADTVWYLYYYWGQGSQVTVSS”, the “polyreactivity (PSR sort gate)” value was “high polyreactivity”. In the case of “QVQLVESGGGLVQAGGSLRLSCAASGRIFGYYAMGWYRQAPGKERELVAAITINGGRTYYADSVKGRFTISRDNAKNTVYLQMNSLKPEDTAVYYCTATSRYNRLGYWGQGTLVTVSS”, the “polyreactivity (PSR sort gate)” value is reported as “high polyreactivity”. In the case of “QVQLVESGGGLVQAGGSLRLSCAASGYTDYAMGWYRQAPGKERELVATITSGDNTNYADSVKGRFTISRDNAKNTVYLQMNSPQPEDTAVYYCAADRIGRYRPYIGYWGQGTQVTVSS”, the “polyreactivity (PSR sort gate)” value is reported as “low polyreactivity”. For “QGQRVESGGGLVQAGGSLRLSCAASGLIFSRYGMGWYRPARGKDRELVAAISGGGGSTYYADSVKGRFTISRDNAKNTVYLEMNSLKPEDTAVYYCARKYTRKIPASDYWGQGTQVTVSS”, the “polyreactivity (PSR sort gate)” value was “high polyreactivity”. For “QVQLVESGGGLVQAGGSLRLSCAASGRIFGYYAMGWYRQAPGKERELVAAISYNVVSTNYADSVKGRFTISRDNPKNTVYLQMNSLKPEDTAVYYCAADYGRPYTAFDYWGQGTQVTVSS”, the “polyreactivity (PSR sort gate)” value was “low polyreactivity”. For “QVQLVESGGGLVQAGGSLRLSCAASGFIFWYYAMGWYRQAPGKERELVAAISWSGTSTYYADSVKGRFTISRDNAKNTVYLQMNSLKPEDTAVYYCAAGPYSYYPLHAHYDYWGQGTQVTVSS”, the “polyreactivity (PSR sort gate)” value was “high polyreactivity”.
